We go through one substance from patent US20060021073A1.

The test addresses Rab3. As to the kind of experiment: cell-based or functional assay.

For the substance “wild-type Noc2 expressed from adenovirus Ad-Noc2 wt in pancreatic islets of Noc2-/- mice (from UniProt Q768S4 1-302)”, the Ca2+-triggered insulin secretion in cultured pancreatic islets of Noc2-/- mice (ng/islet/30 min) was determined as 1.2.
